pEC50: −log10 of the molar value.
Target: C-RANKL protein (mouse RANKL fragment with N-terminal cysteine-containing linker GPGCGGG and hexahistidine tag) (mouse) (UniProt O35235)
Assay: ELISA on plates coated with C-RANKL 10 ug/ml, serial dilutions of RANK-Fc, anti-Fc-HRP detection

Sequence of UniProt O35235 (O35235 other isoform, or with tags, fused parts or gaps limits assumed, form in doubt): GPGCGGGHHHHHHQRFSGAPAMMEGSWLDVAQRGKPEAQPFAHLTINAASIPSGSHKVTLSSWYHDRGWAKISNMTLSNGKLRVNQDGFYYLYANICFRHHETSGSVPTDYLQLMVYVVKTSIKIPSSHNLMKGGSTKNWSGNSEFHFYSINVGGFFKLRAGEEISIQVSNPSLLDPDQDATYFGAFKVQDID

- pEC50: 8.52 to 9.00
Substance: purified RANK-Fc fusion protein

Reference: patent publication EP1441764B1
